Data on one substance can be found in publication PMC2196190.

In the test the target is hBUBR1 (human (endogenous in HeLa)) (UniProt O60566). Kind of test: co-IP.

One may read the stoichiometry N as a count of units in the complex or per binding partner.

Sequence of UniProt O60566 (O60566 whole entry): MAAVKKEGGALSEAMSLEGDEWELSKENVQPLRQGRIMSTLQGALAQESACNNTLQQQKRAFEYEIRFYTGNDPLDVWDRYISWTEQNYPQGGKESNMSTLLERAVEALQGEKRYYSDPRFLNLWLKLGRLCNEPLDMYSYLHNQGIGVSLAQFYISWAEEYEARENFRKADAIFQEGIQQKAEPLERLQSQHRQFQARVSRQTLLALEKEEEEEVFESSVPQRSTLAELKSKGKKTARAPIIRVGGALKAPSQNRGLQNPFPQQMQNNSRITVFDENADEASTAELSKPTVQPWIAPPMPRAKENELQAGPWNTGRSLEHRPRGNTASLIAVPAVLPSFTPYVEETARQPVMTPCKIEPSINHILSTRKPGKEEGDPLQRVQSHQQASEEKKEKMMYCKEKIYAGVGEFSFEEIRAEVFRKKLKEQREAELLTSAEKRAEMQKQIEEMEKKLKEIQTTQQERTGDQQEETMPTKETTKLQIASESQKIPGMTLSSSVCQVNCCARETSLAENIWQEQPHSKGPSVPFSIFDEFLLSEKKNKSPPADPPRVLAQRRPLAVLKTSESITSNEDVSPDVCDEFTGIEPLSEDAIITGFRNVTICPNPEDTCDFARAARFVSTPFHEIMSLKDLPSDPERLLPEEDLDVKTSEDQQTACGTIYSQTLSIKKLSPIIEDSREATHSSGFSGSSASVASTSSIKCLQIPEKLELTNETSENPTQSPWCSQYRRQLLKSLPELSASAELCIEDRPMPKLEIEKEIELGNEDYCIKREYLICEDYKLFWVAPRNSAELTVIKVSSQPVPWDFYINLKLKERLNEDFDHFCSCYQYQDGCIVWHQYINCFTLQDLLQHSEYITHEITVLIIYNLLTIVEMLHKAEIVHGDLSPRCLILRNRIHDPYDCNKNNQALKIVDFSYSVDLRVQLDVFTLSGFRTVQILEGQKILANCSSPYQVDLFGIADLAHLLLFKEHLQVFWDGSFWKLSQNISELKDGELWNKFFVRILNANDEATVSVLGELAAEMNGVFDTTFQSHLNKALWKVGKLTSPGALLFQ

“anaphase-promoting complex/cyclosome (APC/C) from mitotic HeLa cells (from UniProt P30260;Q13042;Q9UJX3)” yielded a stoichiometry N of 1.
